In article PMC12723162, “Alphaherpesvirus pUL21 homologs use non-canonical sequences to compete with cellular adaptors for protein phosphatase 1 binding” (The Journal of Biological Chemistry, 2025):
Numbering of substitutions follows the chain as printed. In names and notes the source's numbering stands. Entries after “also recorded” stand apart in the source; their conditions may differ. Read-outs that look alike come from different tables or passages of the source.

Legend:
Assay type in all cases: binding
[1] = target: T1, PP1γ catalytic domain (7–300), C-terminally His6-tagged (Mus musculus, UniProt P63087); assay: Isothermal titration calorimetry (ITC); set-up: key to KD / ∆H / ∆G / -T∆S / N (sites): –: no binding detected
T1 construct: mouse PP1γ catalytic domain (residues 7–300)-H6; made in house; host or cells: E. coli T7 Express lysY/Iq
T1 sequence (P63087 7-300): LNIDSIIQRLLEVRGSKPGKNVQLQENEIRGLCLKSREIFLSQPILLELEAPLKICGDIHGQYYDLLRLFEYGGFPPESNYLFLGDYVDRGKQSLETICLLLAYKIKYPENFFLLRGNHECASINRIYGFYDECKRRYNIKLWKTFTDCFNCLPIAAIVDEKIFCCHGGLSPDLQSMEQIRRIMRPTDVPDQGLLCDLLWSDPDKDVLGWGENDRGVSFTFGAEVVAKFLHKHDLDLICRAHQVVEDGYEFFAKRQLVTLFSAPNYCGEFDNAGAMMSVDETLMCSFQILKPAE
Text: (§1) Bacterial expression plasmids encoding the mouse PP1γ catalytic domain (residues 7–300)-H6 and pUL21-H6, and mammalian expression vectors encoding pUL21(FV242AA)-GFP, pORF38-GFP and pORF38(FV255AA)-GFP, were described previously ([23]). We note that the mouse and human PP1γ catalytic domains share 100% amino acid identity. pORF38-NLT-H6 was generated by sub-cloning residues 1 to 263 of ORF38 into the vector pOPTnH ([52]). pUL21-RVxF-H6 was generated by inserting the mutations A237V and V239F into pUL21-H6 by QuikChange site-directed mutagenesis. Human PP1α was cloned from HeLa cell cDNA into a vector derived from pF5K (Promega) with an N-terminal Myc epitope tag via restriction-based cloning, and point mutations were introduced into Myc-PP1α by QuikChange mutagenesis. A plasmid encoding pUL21-GFP was generated by sub-cloning a codon-optimized synthetic UL21 gene (GeneArt) into pEGFP-N1 (Clontech), yielding an identical pUL21-GFP amino acid sequence as used in ([23]). pUL21-ΔL, -ΔR and -ΔLR were generated from this vector via inverse PCR, and point mutations were introduced via QuikChange mutagenesis.
Proteins were expressed using E. coli T7 Express lysY/I^q cells (New England Biolabs) grown in 2 × TY medium at 37 °C to OD600 0.8 to 1.2 before cooling to 22 °C and induction of protein expression using 0.4 mM IPTG. Cells were harvested at 16 to 20 h post-induction and pellets stored at −70 °C until required. Cells were resuspended in chilled lysis buffer (20 mM Tris pH 7.5, 20 mM imidazole, 500 mM NaCl, 1.4 mM β-mercaptoethanol 0.5 mM MgCl2 and 0.05% TWEEN-20 [plus 1 mM MnCl2 for PP1]) that was supplemented with 200 μl EDTA-free protease inhibitor cocktail (Merck) and 400 U bovine DNase I (Merck). Cells were lysed using a TS series cell disruptor (Constant Systems) at 24 kpsi and lysates were clarified (40,000×g, 30 min, 4 °C) before incubation with Ni-NTA agarose (Qiagen) for 1 h at 4 °C. The resin was washed with ≥20 column volumes of wash buffer (20 mM Tris, 20 mM imidazole and 500 mM NaCl [plus 1 mM MnCl2 for PP1]) at pH 7.5 (PP1γ and pORF38-NLT) or pH 8.5 (pUL21 and pUL21-RVxF). Protein was eluted using wash buffer supplemented with additional imidazole (final concentration 250 mM) and proteins were subjected to size-exclusions chromatography using HiLoad 16/600 Superdex 75 (PP1) or Superdex 200 (other) columns equilibrated in 20 mM Tris pH 8.5, 500 mM NaCl, 1 mM DTT (for pUL21 and pUL21-RVxF) or 50 mM HEPES pH 8.0, 500 mM NaCl, 0.5 mM TCEP (for PP1 and pORF38-NLT). Fractions were analysed by SDS-PAGE and those containing the desired protein were pooled, concentrated using centrifugal concentrators (Millipore) and stored at 4 °C (short-term) or snap-frozen in liquid nitrogen for long-term storage at −70 °C.
ITC experiments were performed using a MicroCal PEAQ-ITC automated calorimeter (Malvern Panalytical). The solvent (ITC buffer) was 50 mM HEPES pH 8.0, 500 mM NaCl, 0.5 mM TCEP. Lyophilized peptides were dissolved into ITC buffer and their concentration was estimated from dry mass. Proteins were diluted in ITC buffer, and their concentration was estimated from the theoretical extinction coefficient at 280 nm ([53]). […] Data were analyzed using MicroCal PEAQ-ITC analysis software (Malvern Panalytical) and fitted using a one-site binding model.
Table S1. Isothermal titration calorimetry (ITC) of PP1 with TROPPO-containing peptides and proteins. Data for independent experiments are shown. For all, the cell contained C-terminally His6-tagged mouse PP1γ (7–300). –, no binding detected.

[2] = target: T2, PP1γ catalytic domain : GADD34 peptide pre-formed complex (Mus musculus, UniProt P63087); assay: Competition fluorescence anisotropy, displacement of FITC-GADD34 peptide from PP1γ (HEPES pH 8.0); settings: 2 nM fluorescent GADD34 peptide + 250 nM PP1γ
T2 construct: mouse PP1γ catalytic domain (residues 7–300)-H6; His6 (C); made in house; host or cells: E. coli T7 Express lysY/Iq (PP1γ); tracer peptide synthesised by GenScript
T2 sequence (P63087 7-300, one chain of several): as the sequence (P63087 7-300) above
Text: as §1
Peptides were commercially synthesised to >95% purity (GenScript) as follows: GADD34 RVxF+ϕϕ[xF] […]
(§2) Proteins were expressed using E. coli T7 Express lysY/I^q cells (New England Biolabs) grown in 2 × TY medium at 37 °C to OD600 0.8 to 1.2 before cooling to 22 °C and induction of protein expression using 0.4 mM IPTG. […] Fractions were analysed by SDS-PAGE and those containing the desired protein were pooled, concentrated using centrifugal concentrators (Millipore) and stored at 4 °C (short-term) or snap-frozen in liquid nitrogen for long-term storage at −70 °C.
Fluorescence anisotropy was measured using a SpectraMax i3 microplate reader (Molecular Devices) with wavelengths 485 ± 20 nm (excitation) and 535 ± 25 nm (emission). Samples (100 μl per well) were dispensed into low-bind black half-area 96-well microtitre plates (Corning) and fluorescence anisotropy was recorded at 27 °C. […]

[3] = target: T2, PP1γ catalytic domain : GADD34 peptide pre-formed complex; assay: Competition fluorescence anisotropy in Tris pH 8.5 buffer; settings: 2 nM fluorescent GADD34 peptide + 250 nM PP1γ
Description: Similar competition fluorescence anisotropy experiments with purified full-length pUL21 (Fig. 5E) were performed in a buffer optimized to enhance solubility of the protein (Tris pH 8.5 in place of HEPES pH 8). […] To test whether optimization of the TROPPO sequence to better match a canonical RVxF motif could enhance binding, we generated, expressed and purified a pUL21-H6 mutant where residues A237 and V239 had been substituted for valine and phenylalanine, respectively (pUL21-RVxF, Fig. 5E).
as §1, with “A plasmid encoding pUL21-GFP was generated by sub-cloning a codon-optimized synthetic UL21 gene (GeneArt) into pEGFP-N1 (Clontech), yielding an identical pUL21-GFP amino acid sequence as used in ([23]). pUL21-ΔL, -ΔR and -ΔLR were generated from this vector via inverse PCR, and point mutations were introduced via QuikChange mutagenesis.” left out
as §2
Fluorescence anisotropy was measured using a SpectraMax i3 microplate reader (Molecular Devices) with wavelengths 485 ± 20 nm (excitation) and 535 ± 25 nm (emission). […]

[4] = TROPPO peptide, independent experiment 3, syringe/cell µM: pORF38 500/16.0
[5] = TROPPO peptides, independent experiment 1, syringe/cell µM: pUL21 1000/58.8, pORF38 1000/79.6
[6] = TROPPO peptides, independent experiment 2, syringe/cell µM: pUL21 1000/54.5, pORF38 500/17.0
[7] = independent experiment 1, 240 µM titrant, 17.0 µM PP1, HEPES pH 8.0, 25 °C
[8] = independent experiment 2, 147 µM titrant, 10.0 µM PP1, HEPES pH 8.0, 25 °C
[9] = independent experiment 3, 153 µM titrant, 9.5 µM PP1, HEPES pH 8.0, 25 °C

Molecule: KSDHITLSNFVQIRTIPR [pORF38 TROPPO, pORF38 TROPPO peptide (residues 246–263)]
- ITC heats of TROPPO peptides against PP1 catalytic domain ([1]; 500–1000 μM peptide titrated, 50 mM HEPES pH 8.0, 500 mM NaCl, 0.5 mM TCEP, 25 °C): did not evolve heats above background levels
- -T∆S [1, 4]: –
- N (sites) [1, 4]: –
- ∆G [1, 4]: –
- ∆H [1, 4]: –
- KD ([1]; TROPPO peptide, independent experiment 3, syringe/cell µM: pORF38 500/16.0, HEPES pH 8.0, 25 °C): –
- -T∆S [1, 5]: –
- N (sites) [1, 5]: –
- ∆G [1, 5]: –
- ∆H [1, 5]: –
- KD ([1]; TROPPO peptides, independent experiment 1, syringe/cell µM: pUL21 1000/58.8, pORF38 1000/79.6, HEPES pH 8.0, 25 °C): –
- -T∆S [1, 6]: –
- N (sites) [1, 6]: –
- ∆G [1, 6]: –
- ∆H [1, 6]: –
- KD ([1]; TROPPO peptides, independent experiment 2, syringe/cell µM: pUL21 1000/54.5, pORF38 500/17.0, HEPES pH 8.0, 25 °C): –
- Displacement of GADD34 peptide from PP1 by TROPPO peptides ([2]; competitor at over 1000-fold molar excess, HEPES pH 8.0, 500 mM NaCl, 0.05% TWEEN-20, 27 °C): Neither TROPPO-containing peptide was able to displace the GADD34 peptide

B1: pORF38-NLT: VZV pORF38 N-terminal domain plus Linker region up to the end of the TROPPO motif (residues 1 to 263) (protein)
chain: MEFPYHSTVSYNGVTFYFNERATRAYFICGGCLISIPRKHGGEIAKFGHVVRGVGPGDRSVASYVRSELNRTGKTWAVSSNNNCVFLDRVALLAAGSGAVDRDLCGTFDVEVEDPTLADYLVSLPVTHLTLVAGVDVTRENKLKLFPTPTAINTTNGFMYVPNEASFSLVYMRMLELPESLQELVSGLFDGTPEIRDALNGSNDDEKTSIIVSRRAADVVTEDVKADDVPISGEPYSEKQPRRRKKSDHITLSNFVQIRTIPR
modifications: left off: His6, C-terminal, kept
- ΔH, mean ([1]; 25 °C, HEPES pH 8.0, average of three independent experiments): -13.3 kcal/mol
- Kd ([1]; independent experiment 1, 240 µM titrant in syringe, 17.0 µM PP1 in cell, HEPES pH 8.0, 25 °C, read-out: KD): 719 nM
- -T∆S [1, 7]: 4.76 kcal/mol
- N (sites) [1, 7]: 1.21 sites
- ∆G [1, 7]: -8.38 kcal/mol
- ∆H [1, 7]: -13.1 kcal/mol
- Kd ([1]; independent experiment 2, 147 µM titrant in syringe, 10.0 µM PP1 in cell, HEPES pH 8.0, 25 °C, read-out: KD): 540 nM
- -T∆S [1, 8]: 4.72 kcal/mol
- N (sites) [1, 8]: 0.965 sites
- ∆G [1, 8]: -8.55 kcal/mol
- ∆H [1, 8]: -13.3 kcal/mol
- Kd ([1]; independent experiment 3, 153 µM titrant in syringe, 9.5 µM PP1 in cell, HEPES pH 8.0, 25 °C, read-out: KD): 231 nM
- -T∆S [1, 9]: 4.5 kcal/mol
- N (sites) [1, 9]: 0.838 sites
- ∆G [1, 9]: -9.06 kcal/mol
- ∆H [1, 9]: -13.6 kcal/mol
- PP1 binding compared with GADD34 peptide ([1]; pORF38-NLT ITC versus GADD34 peptide by fluorescence anisotropy or ITC): substantially weaker binding than observed for the GADD34 peptide
- Kd ([1]; pORF38-NLT titrated into PP1, HEPES pH 8.0, 500 mM NaCl, 0.5 mM TCEP, 25 °C, one-site model, mean ± SEM, three independent experiments, listed as pOPF38-NLT, read-out: Affinity (KD), mean): ~500 nM
- Competition with RVxF peptide for PP1 binding ([2]; increasing concentrations of pORF38-NLT, HEPES pH 8.0): competes with the RVxF peptide for PP1 binding

B2: Full-length pUL21: purified full-length HSV-1 pUL21 (protein)
chain: MELSYATTMHYRDVVFYVTTDRNRAYFVCGGCVYSVGRPCASQPGEIAKFGLVVRGTGPDDRVVANYVRSELRQRGLQDVRPIGEDEVFLDSVCLLNPNVSSELDVINTNDVEVLDECLAEYCTSLRTSPGVLISGLRVRAQDRIIELFEHPTIVNVSSHFVYTPSPYVFALAQAHLPRLPSSLEALVSGLFDGIPAPRQPLDAHNPRTDVVITGRRAPRPIAGSGAGSGGAGAKRATVSEFVQVKHIDRVGPAGVSPAPPPNNTDSSSLVPGAQDSAPPGPTLRELWWVFYAADRALEEPRADSGLTREEVRAVRGFREQAWKLFGSAGAPRAFIGAALGLSPLQKLAVYYYIIHRERRLSPFPALVRLVGRYTQRHGLYVPRPDDPVLADAINGLFRDALAAGTTAEQLLMFDLLPPKDVPVGSDVQADSTALLRFIESQRLAVPGGVISPEHVAYLGAFLSVLYAGRGRMSAATHTARLTGVTSLVLAVGDVDRLSAFDRGAAGAASRTRAAGYLDVLLTVRLARSQHGQSV
modifications: left off: His6, C-terminal, kept
notes: purified full-length HSV-1 pUL21
- Competition with GADD34 peptide for PP1 binding [3]: unable to out-compete GADD34 for binding to PP1
- Competition with GADD34 peptide for PP1 binding ([3]; listed as wild-type pUL21): cannot displace a GADD34 RVxF- and ϕϕ[xF]-containing peptide from PP1

B3: pUL21-RVxF: pUL21-H6 with mutations A237V and V239F (protein)
chain: B2 chain with A237V, V239F
modifications: left off: His6, C-terminal, kept
notes: pUL21-H6 with mutations A237V and V239F
- Competition with GADD34 peptide for PP1 binding [3]: competes with the GADD34 peptide for binding to the PP1 hydrophobic groove; also recorded: the ability to compete with the GADD34 peptide for PP1 binding
